Patent US20110230370A1 (CALIFORNIA INSTITUTE OF TECHNOLOGY, published 2011)

T1: Doa10myc13 (full-length, C-terminally myc13-tagged S. cerevisiae Doa10 E3 Ub ligase) (S. cerevisiae, UniProt P40318 1-1319)
T1 construct: mature; also called mycn-tagged Doa10; Doa10men
T1 sequence (looked up): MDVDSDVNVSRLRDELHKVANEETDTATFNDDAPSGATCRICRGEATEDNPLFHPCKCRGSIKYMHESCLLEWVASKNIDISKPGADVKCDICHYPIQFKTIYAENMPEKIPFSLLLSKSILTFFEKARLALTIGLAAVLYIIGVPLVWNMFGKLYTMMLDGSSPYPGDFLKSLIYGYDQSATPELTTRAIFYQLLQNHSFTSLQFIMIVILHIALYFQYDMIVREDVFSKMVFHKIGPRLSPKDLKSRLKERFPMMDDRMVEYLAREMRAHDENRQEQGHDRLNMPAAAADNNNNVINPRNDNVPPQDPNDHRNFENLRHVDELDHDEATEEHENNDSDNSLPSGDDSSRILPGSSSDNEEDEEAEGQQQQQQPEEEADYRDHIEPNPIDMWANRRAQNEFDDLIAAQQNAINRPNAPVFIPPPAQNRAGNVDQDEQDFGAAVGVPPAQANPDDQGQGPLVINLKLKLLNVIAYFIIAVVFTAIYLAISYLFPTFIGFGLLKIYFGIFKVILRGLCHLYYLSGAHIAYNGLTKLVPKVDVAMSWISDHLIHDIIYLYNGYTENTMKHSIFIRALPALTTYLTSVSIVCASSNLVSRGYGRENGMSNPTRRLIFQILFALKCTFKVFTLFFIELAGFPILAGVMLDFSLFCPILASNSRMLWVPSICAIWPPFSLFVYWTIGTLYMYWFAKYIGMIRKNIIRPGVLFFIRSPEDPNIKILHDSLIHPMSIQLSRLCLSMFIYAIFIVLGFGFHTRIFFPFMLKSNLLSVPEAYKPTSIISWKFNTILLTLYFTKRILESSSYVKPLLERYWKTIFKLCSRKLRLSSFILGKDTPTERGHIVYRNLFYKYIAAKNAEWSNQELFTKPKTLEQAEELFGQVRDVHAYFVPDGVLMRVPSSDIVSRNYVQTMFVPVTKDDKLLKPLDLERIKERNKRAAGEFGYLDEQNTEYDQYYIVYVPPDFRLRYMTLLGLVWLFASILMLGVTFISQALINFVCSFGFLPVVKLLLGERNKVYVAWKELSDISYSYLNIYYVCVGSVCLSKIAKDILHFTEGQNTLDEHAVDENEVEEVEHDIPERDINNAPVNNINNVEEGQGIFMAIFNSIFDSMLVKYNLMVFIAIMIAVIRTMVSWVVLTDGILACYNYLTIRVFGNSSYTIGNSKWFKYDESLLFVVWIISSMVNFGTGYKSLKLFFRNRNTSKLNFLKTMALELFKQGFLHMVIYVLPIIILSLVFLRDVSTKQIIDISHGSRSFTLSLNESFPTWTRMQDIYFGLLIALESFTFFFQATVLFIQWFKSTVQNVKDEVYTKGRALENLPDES


Legend:
[1] = biological target: ^MNMATα2f (wild-type full-length MATα2, C-terminally flag-tagged) (S. cerevisiae) (UniProt P0CY08); test: cell-based or functional assay
[2] = biological target: T1, Doa10myc13 (full-length, C-terminally …); test: X-peptide pulldown from yeast extract, anti-myc immunoblot

| Molecule | binding result [2] | further results |
| --- | --- | --- |
| Doa10 E3 Ub ligase (endogenous, S. cerevisiae) (from UniProt P40318 1-1319) | – | level of MATα2f at 0 min (end of pulse) in wild-type cells relative to doa10Δ cells (100%), Ub-reference ^35S-pulse-chase [1]: 55% |
| Doa10 E3 Ub ligase (endogenous, S. cerevisiae) (from UniProt P40318 1-1319) (enzyme) | – | in vivo half-life of ^MNMATα2f, ^35S-pulse-chase, doa10Δ ubc4Δ cells (Doa10 absent) [1]: 35 min; in vivo half-life of ^MNMATα2f, ^35S-pulse-chase, ubc4Δ cells (Doa10 present) [1]: 9 min |
| RIFSTDTGPGGC (also called nsP4-derived control peptide (X=Arg)) [synthetic peptide XIFSTDTGPGGC with X=Arg] | no binding | – |
| FIFSTDTGPGGC (also called nsP4-derived control peptide (X=Phe)) [synthetic peptide XIFSTDTGPGGC with X=Phe] | no binding | – |
| MIFSTDTGPGGC (also called nsP4-derived control peptide (X=Met)) [synthetic peptide XIFSTDTGPGGC with X=Met] | no binding | – |
